Test results: the nanobody polyreactivity screen of Harvey et al. (2022)

Assay: yeast display, Sf9 membrane polyspecificity reagent, FACS + sequencing; frameworks hold sequencing errors
In short: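 After 36–48 hours of galactose induction, yeast (Saccharomyces cerevisiae BJ5465) displaying a synthetic nanobody library were stained at 4 °C for 1 hour with 10% biotinylated, detergent-solubilized Sf9 membrane reagent. Streptavidin microbeads enriched the stained cells before FACS sorting into low and high (top ~1%) gates on anti-HA and streptavidin fluorescence. Each clone's polyreactivity label reflects its gate of origin.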

Row | Sequence | polyreactivity (PSR sort gate)
1 | QVQLVESGGGLVQAGGSLRLSCAASGRTFYANTMGWYRPAPGKERELVASITSRGTSTYYADSVKGRFTISRDNAKNTVYLEMNSLKPEDTAVYYCAKAFIAPQYAWGGDYWGQGTQVTVSS | high polyreactivity
2 | QVQLVESGGGLVQAGGSLRLSCAASGNTFPWYAMGWSRQAPGKERELVAAINSGGRTNYADSVKGRFTISRDNAKNTVYLQMNSLKQEDTAVYYCAAAFDWGLYCFDYWGQGTQVTVSS | high polyreactivity
3 | QVQLVESGGGLVQAGGSLRLSCAASGSIVGRYAMGWYSQAPGQERELVAAISTGDSTYYADSVKGRFTISRDNAKNTVYLQMNSLKPEDTAVYYCNRRGRRVYDYWGQGTQVTVSS | high polyreactivity
4 | QVQLVESGGGLVQAGGSLRLSCAASGFTIDTYAMGWYRQAPGKERELVAGISWSGGSTYYADSVKGRFTISRDNAKNTVYLQMNSLKPEDTAVYYCARTARRRYQPYEYWGQGTQVTVSS | low polyreactivity
5 | QVQLVESGGGLVQAGGSLRLSCAASGFTIRRYAMGWYRQAPGKERELVAAITRSAGSTYYADSVKGRFTISRDNAKNTVYLQMNSLKPEDTAVYYCAARWTRWGADSGYYWGQGTQVTVSS | high polyreactivity
6 | QVQLVESGGGLVQAGGSLRLSCAASGRIFSRNAMGWYRQAPGKERELVAGISARGGRTYYADSVKGRFTNSRDNAKNTVYLQMNSLKPEDTAVYYCAASFSAIRGGVRVTIDYYWGQGTQVTVSS | high polyreactivity
7 | QVQLVESGGGLVQAGGSLRLSCAASGFTFDVYAMGWYRQAPGKERELVATITWSGGSTTYADSVKGRFTISRDNAKNTVYLQMNSLKPEDTAVYYCAADRSVQVTFDYWGQGTQVTVSS | low polyreactivity
8 | QVQLVESGGGLVQAGGSLRLSCAASGSIFKVYAMGWYRQAPGKERELVATISGSGGSTYYADSVKGRFTISRDNAKKTVYLQMNSLKPEDTAVYYCAADAGYAFAVGGGWVEALYDYWGQGTQVTVSS | low polyreactivity
9 | QVQLVESGGGLVQAGGSLRLSCAASGRIFYRYAMGWYRQAPGKEREFVAAISGTGGSTYYADSVKGRFTISRDNAKNTVYLQMNSLKPEDTAVDYCAASVVSRPTYYAYYYWGQGTQVTVSS | high polyreactivity
10 | QVQLVESGGGLVQAGGSLRLSCAASGSTFPVYVMGWYRPAPGKERELVAAITRSGGSTYYADSVKGRFTISRDNAKNTVYLQMNSLKPEDTAVYYCNKDVWDGYDWPEFDYWGQGTQVTVSS | low polyreactivity
11 | QVQLVESGGGLVQAGGSLRLSWAASGIILQEYTMGWYRPAHWKERELVAAISVRGGSTYYADSVKGRFTISRDHAKNTVYLQMNSLKPEDTAVYYCAAAYYRRPPGFNYWGQGTEVTVSS | high polyreactivity
12 | QVQLVESGGGFVQAGGSLRLSCAASGSTFHDNAMGWYRQAPGKERELVAGISISGVSTFYADSVKGRFTISRDYAKNTVYLQMNSLKPEDTAVYYCTADDVSAYQRFDYWGQGTQVTVSS | low polyreactivity
13 | QVQLVESGGGLVQAGGSLRLSCAASGFTFYYNAMGWYRQAPGKERELVAIRFRGGNTYYADSVKGRFTISRDNAKNTVYLQMNSLKPEDTAVYYCNADDRGSTYVDFDYWGQGTQVTVSS | low polyreactivity
14 | QVQLVESAGGLVQAGGSLRLSCAASGSTFPFYAMGWYRPAPGKERELVAAISASGVRTYYADSVKGRFTISRDNAKNTVYLQMNSLKPEDTAVDYCNRVYSTSRITQYEFDYWGQGTQVTVSS | low polyreactivity
15 | QVQLVESGGGLVQAGGSLRLSCAASGFTFYTYAMGWYRQAPGKERELVADISSGGSTNYADPVKGRFTISRDNAKNTVDLQMNCLKPEDTAVYYCSADYYFLDWYDYWGQGTQVTVSS | low polyreactivity
16 | QVQLVESGGGLVQAGGSLRLSCAASGSTFGIYVMGWYRQAPGKERELVADISSSGGSTYYADSVKGRFTISRDNAKNTVYLQMNSLKPEDTAVYYCNAYHWDGDGVFYEYDYWGQGTQVTVSS | high polyreactivity
17 | QVQLVESGGGLVQAGGSLRLSCAASGSTFYTNAKGWYRQAPGKEREFVAAISWAGSSTYADSVKGRFTISRDNAKTTVYLQMHSLKPEDTAVYYCNADVLDGGYDYWGQGTQVTVSS | low polyreactivity
18 | QVQLVESGGGLVQAGGTLRLSCAASGLTFRYYAMGWYRQAPGKERELVAAITRRGSTYYADSVKGRFTISRDNAKNTVYFQMNSLKPEDTAVYYCATVTGFHSSPLRDLDYWGQGTQVTVSS | high polyreactivity
19 | QVQLVESWGGLVQAGGSLRLSCAASGRTFVTNAMGRYRQAPGTERELVAAISGSGGSTYYADSVTGRFTISRDNAKNTVYLQMNSLKPEDTAVYYCATSYSLGYARYGYWGQGTQVTVSS | high polyreactivity
20 | QVQLVESGGGLVHAGGSLSLSCAASGYTFPLYAMGRYRQAPGKERELVADNNIGGASTYYADSVKGRFTISRDNAKNTVYLQMNSLKPEDTAVYYCAKEDYDGYFPTFDYDYWGQGTQVTVSS | low polyreactivity
21 | QVQLVEKGGGLVQAGGSLRLSCAASGRTFQYYAMGWYRQAPGNERELVAAINQGGGRTYYADSVKGRFTISRDNAKNTVYLQMNSLKPEDTAVYYCAADGLSKFDYWGQGTQVTVSS | low polyreactivity
22 | QVHLVESGGGLVQSGGSLRLSCAASGTIFEANVKGWYRQAPGKERELVATISSDGTSTYYADSVKGRFTISRDNAKYTVYLQMNSRKPEDTAVYYCNADAGAGWYPDSKYAYDYWGQGTLVTVSS | low polyreactivity

Row | Sequence | polyreactivity (PSR sort gate)
23 | QVQLVESGGGLVQAGGSLRLSCAASGSTFWKYAMGWYRQAPGKERELVASIRSGGSTYYADSVKGRFTISRDNAKNTVYLQMNSLKPEDTAVYYCAAKSISVGGGVYGYRYYYWGQGTQVTVSS | high polyreactivity
24 | QVQLVESGGGLVQAGGSLRLSCPASGFTFGYYAMGWYRQSPGKESELVATITSSGASTYADSVKGRFTISGDNAKNTVYLQMISLKPEDTAVYYCAADRLPSYWSWYGYDYWVQGTQVTVSS | high polyreactivity
25 | QVQLVESGGGLVQAGGSLRLSCASSGRIFLYNAMGWYRQAPGKERELVAVISYGGGTYYADSVKGRFTISRDNAKNTVYLQMISLKPEDSAVYYCAAEKYSSSRYWPYNYWGQGTQVTVSS | high polyreactivity
26 | QVQLVESGGGLVQAGGSLRLTCAASGIIFCDYVMGWYRQEPGKESELVAAISASGGRTYYADSVKGRFTISRDNAKNTVYLQMTSLKPEDTAVYYCNKRYRNRYSYSEGDYWGQGTQLTVSS | high polyreactivity
27 | QVQLVESGGGLVQAGGSLRLSCAASGRIFSYYTMGWYRQAPGKEREFVAAISWNDGSTYYADSVKGRFTISRDNSKNTVYLQMNSLKPEDTAVYYCAAEYHYFWWRMDYWGQGTQVTVSS | high polyreactivity
28 | QVQLVESGGGLVQAGGSLRLSCAASGSIITPYTMGWYRQAPGKERELVAAITGSAGSTYYADSVKGRFTISRDNAKNTVYLQMNSLKPEDTAVYYCAAAVWGVYQWYYYWGQGTQVTVSS | high polyreactivity
29 | QVQLVESGGGLVQAGGSLRLSCAASGYIFYYNTMGWYRQAPGKERELVAAISSAGSTNYADSVKGRFTISRDNAKNTVYLQMNSRKPEDTAVYYCAARTRFSYRRNSYGYWGQGTQVNVSS | high polyreactivity
30 | QVQLVESGGGLVQAGGSLRLSCAASGRTFGQYAMGWYRQAPGKEREFVAGITWSGGSTSYADSVKGRFTISRDNAKNTVYLQMNSLKPEDTAVYYCIAVYWKPSLEYGYWGQGTQVTVSS | high polyreactivity
31 | QVQHVESGGGLVQAGGSLRLSCAASGRTFHQNAMGWYRQAPGKERELVATITAGSGSTYYADSVKGRFTISGDNAKNTVYLQMNSVKPEDTAVYFWNAKWTLYQSDYWYYIYDYCGQGTQVTVSS | low polyreactivity
32 | QVQLVESGGGLVQAGGSLRLSCAASGFTFVGYAMGWYRQAPGKERELVAAITGRGGTTYYADSVKGRFTISRDNAKNTVYLQMNSLKPEDTAVYYSNADSYITYVQYLYARSWMDYWGQGTQVTVSS | low polyreactivity
33 | QVQLVESGGGLVQAGGSLRLSCAASGRIFGQNAMGWYRQAPGKERELVAVITSRGTRTYYADSVKGRFTISRDNAKNTVYLQMNSLKPEDTAVYYCAADVYSDNYKTWPYDYWGQGTQVTVSS | low polyreactivity
34 | QVQLVESGGGLVQAGGSLRVSCAASGRTFIKYAMGWYRQAPGKERELVAAISRNGGSTNYADSVKGRFTISRDNAKNTVYFQMNSLKPEDTAVYYCAAVGTVSRTVGYNYWGQGTQVTVSS | high polyreactivity
35 | QVQLVESGGGLVQAGGSLRLSCAASGFTFWRNVMGWYRQAPGKERELVAAITRSGGSTYYADSVKGRFTISRDNAKNTVYLQMNSLKPEDTAVYYCNAVRHGGYDYLGQGTQVTVSS | high polyreactivity
36 | QVQRVESAGGLVQAGGSLRISCAASGSTLYKYAMGWYRQAPGKERELVAAISWSGSSTYYADSVKGRFTISRDNAKNTVYLQMNSLKPVDTAVYYCAAYPRPYIVYTDGYVWYEFDYWGQGTQVTVSS | low polyreactivity
37 | QVQLVESGGGLVQAGGSLRLSCPASGRTFYRNAMGWYRQAPGKEREFVAVITWSTGTTYYADSVKGRFTISRDNAKNTVYLQMNSPKPEDTAVYYCAADSQPPHELYESIEHESWGQGTQVTVSS | low polyreactivity
38 | QVQLVDSGGGLVQAGGSLRLSCAASGRTFGIYAMGWYRQAPGKERELVAAIRWRDGSTYYADSVKGRFTISRDNAKNTVYLQMYSLKPEDNAVYYCAATSLVYVRGSYWKYGYWGQGTQVTVSS | high polyreactivity
39 | QVQLVESGGGLVQAGGSLRLSCAASGNIICGNAMGWYRQAPGKERELVAAISRRSGSTYYADSVKGRFTISRDNAKNTVYLQMNSLKPEDTAVYYCNTAGRVGTYDYWGQGTQVTVSS | high polyreactivity
40 | QVQLVESGGGLVQAGGSLLLSCAASGSTFSFYAMGWYRQAPGKERELVAAIDSGGRTKYADSVKGRFTISRDNAKNTVYLQMNSLKPEDTAVYYCAAVFRGLWLYDYWGQGTQVTVSS | low polyreactivity
41 | QVQLVESGGGLVQAGGSLRLSCAASGRTLRAYAMGWYRQAPGKERELVAAITWSGGSTYYADSVKGRFTISRDTAKNTVYLQMNSLKPEDTAVYYCNARSYPDLYDYWGQGTQVTVSS | low polyreactivity
42 | QVQLVESGGGLVQAGGSLRLSCAASGSIFNRYAMGWYRPAPGKEREFVARISKRGGGTYYADSVKGRFTISRDNAKNTVYLQMNSLKPEDTAVYYCAARAYDHTGHVGFDYWGQGTQVTVSS | high polyreactivity
43 | QVQLVESGGGLVQAGGSLRLSCAASGIFYFYAMGWYRQAPGKERELVAAITSSGGNTTYADSVKGRFTISRDNAKNTVYLQMNSLKPEDTAVYYCNADYFQDRLDYWGQGTQVTVSS | low polyreactivity
